# In patent US20250019444A1 (published 2025):
# T1: ULBP6 (NKG2D natural ligand) (Homo sapiens (Human), UniProt Q5VY80 26-218)
# T1 sequence: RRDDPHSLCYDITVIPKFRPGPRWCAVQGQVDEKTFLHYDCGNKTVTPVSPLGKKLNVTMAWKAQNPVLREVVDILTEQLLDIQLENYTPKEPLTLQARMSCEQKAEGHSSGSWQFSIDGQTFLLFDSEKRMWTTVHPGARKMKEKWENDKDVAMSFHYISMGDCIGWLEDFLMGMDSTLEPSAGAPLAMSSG
# B1: soluble mouse Fc-human NKG2D dimer (Fc fusion, UniProt P26718 73-216, looked up)
# chain: IWSAVFLNSLFNQEVQIPLTESYCGPCPKNWICYKNNCYQFFDESKNWYESQASCMSQNASLLKVYSKEDQDLLKLVKSYHWMGLVHIPTNGSWQWEDGSILSPNLLTIIEMQKGDCALYASSFKGYIENCSTPNTYICMQRTV
# notes: also called mFc-hNKG2D; fusion protein of human NKG2D and murine Fc; not shown: murine Fc
# Molecular target: T1, ULBP6 (NKG2D natural ligand)
# Test: SPR, injection over captured mouse Fc-human NKG2D, 25 C
# From the text: Briefly, mouse Fc-human NKG2D was captured using an anti-mouse Fc antibody immobilized on a CM5 chip at a density of approximately 100 RU. […] Biacore 8K evaluation software was used for all data analysis.
binder,measurement,value
B1,binding result,binds
